The record followed here is patent US20020068814A1.

Where two headings read alike, the source gives them in different places. No end group written: not given here.

Experiment [1] concerns the target CGRP receptor of pig coronary artery (pig). Nature of the experiment: displacement of 125I-[His10]-h-αCGRP from pig coronary artery membranes. In general terms: Displacement assays read how much labelled ligand stays bound in the presence of the test substance.
For experiment [2] the target is unchanged. Nature of the experiment: cell-based or functional assay.
The target is the same in experiment [3]. Description: displacement of 125I-[His10]-h-αCGRP from pig coronary artery membranes. The source holds these as a separate data set.

What is called IC50 is the concentration needed to halve the response being measured. A high value points to weaker potency. For dibenzyl-h-α-CGRP(8-37) (peptide), the half-maximal inhibitory concentration (IC50) in experiment [1] worked out at 0.22 nM.
N-α-benzoyl-h-α-CGRP (8-37) (peptide): in experiment [1], the IC50 stood at 0.27 nM.
With N-α-benzyl-h-α-CGRP (8-37) (peptide), in experiment [1], the IC50 was 1.58 nM.
In turn, h-α-CGRP (8-37) (peptide) registered a KB from inhibition of h-α-CGRP-induced relaxation of pig coronary artery rings (Schild analysis) in experiment [2] of 970 nM.
In experiment [3], VTHRLAGLLSRSGGMVKSNFVPTNVGSKAF (peptide, UniProt P10092 89-118, looked up, Calcitonin gene-related peptide 2 N-alpha-benzyl) [N-α-benzyl-h-β-CGRP (8-37)] returned an IC50 of 3.62 nM.
Turning to VTHRLAGLLSRSGGMVKSNFVPTNVGSKAF (ends and bridges not checked) [h-β-CGRP (8-37)], in experiment [3], the concentration for half-maximal inhibition (IC50) came out at 20.6 nM.
VTHRLAGLLSRSGGMVKSNFVPTNVGSKAF (peptide, UniProt P10092 89-118, looked up, Calcitonin gene-related peptide 2 N,N-dibenzyl) [dibenzyl-h-β-CGRP(8-37)] returned an IC50 in experiment [3] of 0.73 nM.
VTHRLAGLLSRSGGMVKSNFVPTNVGSKAF (peptide, UniProt P10092 89-118, looked up, Calcitonin gene-related peptide 2 N-alpha-benzoyl) [N-α-benzoyl-h-β-CGRP (8-37)] returned an IC50 in experiment [3] of 0.63 nM.
